Reference: US20260104424A1, “METHODS, SYSTEMS AND KITS FOR IDENTIFYING BIOACTIVE COMPOUNDS AND THERAPEUTIC METHODS AND COMPOSITIONS” (priority 2022, published 2026)
Entries after “also recorded” stand apart in the source; their conditions may differ.

Legend:
[1] = target: T1, CXCR2 (Homo sapiens, UniProt P25025); assay: M13 phage binding and screening against HEK293T cells overexpressing CXCR2; conditions: negative control protein on M13 phage
T1 sequence (P25025 1-360): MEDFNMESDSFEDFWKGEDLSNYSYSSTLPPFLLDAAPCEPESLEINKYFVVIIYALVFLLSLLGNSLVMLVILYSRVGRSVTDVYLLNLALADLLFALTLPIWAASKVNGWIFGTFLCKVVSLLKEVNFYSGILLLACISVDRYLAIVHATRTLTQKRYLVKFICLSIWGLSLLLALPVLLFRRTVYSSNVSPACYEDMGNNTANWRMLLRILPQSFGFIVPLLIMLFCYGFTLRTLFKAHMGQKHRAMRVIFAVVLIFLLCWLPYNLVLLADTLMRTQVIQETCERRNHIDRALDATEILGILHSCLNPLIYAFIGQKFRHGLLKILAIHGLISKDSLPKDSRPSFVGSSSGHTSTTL

[2] = target: T2, EGFR (Homo sapiens, UniProt P00533); assay: Single-round M13 phage library screening against EGFR (Ig-EGFR beads, HEK293T cells overexpressing EGFR); format: binding; conditions: for identification as hit in screen against Ig-EGFR: AT, MV and secretome libraries, versus Isotype Ig, triplicate; for identification as hit in secretome library screen: beads coated with Ig-EGFR and HEK293T cells overexpressing EGFR
T2 construct: representing the extracellular domain of the target receptor fuse to the Fc region of immunoglobulin G; purchased R&D Systems 344-ER
Protocol: For the phage immunoprecipitation-based ligand discovery, 1 μg of EGFR-Fc (R&D Systems Cat No. 344-ER) and Etanercept (Mippipore Sigma Cat No. 185243-69-0) chimera proteins, representing the extracellular domain of the target receptor fuse to the Fc region of immunoglobulin G, was incubated with the pre-blocked phage library overnight at 4° C. The following day, 20 μL of protein G beads (ThermoFisher Cat No. 10009D) were added to the phage-chimera mixture and rotated for 4 hours at 4° C. to immunocapture (IP) all chimeras. The beads were then washed three times with PBS containing 0.01% NP-40 and stored in −80° C. before sequencing.

[3] = target: T3, MrgprX4 (Homo sapiens, UniProt Q96LA9); assay: MrgprX4 calcium signaling assay; format: cell-based; set-up: activation of MrgprX4 (agonist activity): dose or concentration left out as unconfirmed
T3 construct: GFP; expressed in transfected cells; host or cells: HEK293-MrgprX4-GFP
T3 sequence (Q96LA9 whole entry): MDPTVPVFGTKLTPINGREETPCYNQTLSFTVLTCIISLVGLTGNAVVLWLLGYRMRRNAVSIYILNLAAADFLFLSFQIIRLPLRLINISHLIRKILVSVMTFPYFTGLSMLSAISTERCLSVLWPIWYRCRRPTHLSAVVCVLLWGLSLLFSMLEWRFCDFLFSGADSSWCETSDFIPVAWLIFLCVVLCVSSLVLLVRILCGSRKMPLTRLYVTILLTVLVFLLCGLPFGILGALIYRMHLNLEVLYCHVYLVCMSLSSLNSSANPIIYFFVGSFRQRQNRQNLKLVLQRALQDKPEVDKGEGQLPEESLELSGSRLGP
Protocol: The HEK293-MrgprX4-GFP and HEK293 cell lines were dissociated with 0.25% Trypsin (Gibco, Cat No. 25200-056) and collected after 1-2 minutes incubation. The harvested cells were then seeded at a density of 2.5E+04 cells/well in a 96-well half-area flat clear bottom black plate (Greiner Bio-One, Cat No. 675090) that was pre-treated with 0.1 mg/ml poly-D-lysine. The following day, cells were stained with FLIPR Calcium 5 dye (Molecular Devices, Cat No. R8186) in a loading buffer composed of Hanks' balanced salt solution (HBSS) with 20 mM HEPES, adjusted to pH 7.4. After a 30-minute incubation period at 37° C., TFPI (Acro Biosystems Cat No. TFI-H5226) was introduced, and the cells were incubated for an additional hour at 37° C. Subsequently, UDCA or the buffer control were automatically dispensed into the wells, which were immediately imaged using the Flexstation 3 system (Molecular Devices).

For “$-Lactoglobulin: negative control protein displayed on phage in the CXCR2 binding test”, the “non-specific binding to HEK293T-CXCR2 cells” value [1] was “low non-specific binding”.

betacellulin [BTC] was tested, and the “identification as hit in screen against Ig-EGFR” value (from here on “identification as hit in screen”) [2] was “rediscovered; also recorded: identified” and the “identification as hit in secretome library screen” value [2] was “robustly identified”.

In the case of “heparin binding EGF-like growth factor [HBEGF]”, the “identification as hit in screen” value [2] is reported as “rediscovered”, the “identification as hit in screen” value ([2]; listed as HB-EGF) is reported as “identified” and the “identification as hit in secretome library screen” value [2] is reported as “robustly identified”.

“osteoprotegerin [OPG, reference compound]” was tested, and the “inhibitory activity on MrgprX4” value ([3]; negative control protein, 1 uM (n=4)) was “no obvious inhibitory activity”.

For tissue factor pathway inhibitor [TFPI], the “activation of MrgprX4 (agonist activity)” value [3] was “does not activate”, the “inhibition of activation by UDCA” value ([3]; UDCA (EC80), TFPI at 1 and 0.3 uM, n=7) was “inhibiting the activation of UDCA” and the “concentrations down to which UDCA-induced activation of MrgprX4 was effectively inhibited” value ([3]; calcium-signaling assay) was 0.3 µM. The “concentration at which MrgprX4 activation was inhibited” value ([3]; in the presence of the MrgprX4 activator UDCA) was 300 nM.

With transforming growth factor-A [TGFA] the “identification as hit in screen” value [2] was “rediscovered”, the “identification as hit in screen” value ([2]; listed as TGFa) was “identified” and the “identification as hit in secretome library screen” value [2] was “robustly identified”.
